Here are results for 3 molecules from patent US20180155451A1 (published 2018).

Common to all, as to assay: SPR (Biacore); KD of H240-Kn061/H240-Hl071/L73-k0 divided by KD of the variant
On the technique in general: SPR reads the build-up and loss of mass on a sensor chip optically.

Experiment [1] has as its target T1, FcgRIIa R (human, UniProt P12318 34-217).
T1 construct: extracellular domain; also called FcγRIIa R; FcγRIIa type R; not shown: His tag attached to the C terminus
T1 sequence (looked up): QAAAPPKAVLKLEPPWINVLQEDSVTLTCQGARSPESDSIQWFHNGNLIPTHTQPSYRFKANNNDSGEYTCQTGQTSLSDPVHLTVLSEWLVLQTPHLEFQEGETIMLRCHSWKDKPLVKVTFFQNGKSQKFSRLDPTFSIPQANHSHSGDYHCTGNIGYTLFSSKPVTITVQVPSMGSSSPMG
The procedure: (§1) The antibodies were assessed for the binding to each FcgR. […] The resultant value was defined as relative KD, and used as an assessment indicator.
(§2) Analysis of interaction between obj ective antibody and the FcγR was carried out using Biacore T100 (GE Healthcare), Biacore T200, Biacore A100, and Biacore 4000. HBS-EP+ (GE Healthcare) was used as the running buffer, and the measurement temperature was set to 25° C. Chips produced by immobilizing the antigen peptide by the amine coupling method to a Series S sensor Chip CM5 (GE Healthcare), chips produced by allowing preliminarily biotinylated antigen peptides to interact with and immobilize onto a Series S Sensor Chip SA (certified) (GE Healthcare), chips produced by immobilizing Protein L (ACTIGEN, BioVision) to Series S Sencor Chip CM5 (GE Healthcare), or chips produced by immobilizing Protein A/G (Thermo Scientific) to Series S Sencor Chip CM5 (GE Healthcare) were used. Antibodies of interest were captured onto these chips, and allowed to interact to each FcγR diluted with running buffer.

Experiment [2] concerns the target T2, FcgRIIa H (human, UniProt P12318 34-217).
T2 construct: extracellular domain; also called FcγRIIa H; FcγRIIa type H; not shown: His tag attached to the C terminus
T2 sequence (looked up): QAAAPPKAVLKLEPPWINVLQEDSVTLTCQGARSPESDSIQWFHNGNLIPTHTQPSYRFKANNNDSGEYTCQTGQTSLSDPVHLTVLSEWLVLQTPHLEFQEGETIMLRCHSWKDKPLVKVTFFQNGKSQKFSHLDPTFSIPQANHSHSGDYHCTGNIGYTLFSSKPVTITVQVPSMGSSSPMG
Here is the method: as §1, §2

The target of experiment [3] is T3, FcgRIIb (human, UniProt P31994 43-217).
T3 construct: extracellular domain; also called FcγRIIb; not shown: His tag attached to the C terminus
T3 sequence (looked up): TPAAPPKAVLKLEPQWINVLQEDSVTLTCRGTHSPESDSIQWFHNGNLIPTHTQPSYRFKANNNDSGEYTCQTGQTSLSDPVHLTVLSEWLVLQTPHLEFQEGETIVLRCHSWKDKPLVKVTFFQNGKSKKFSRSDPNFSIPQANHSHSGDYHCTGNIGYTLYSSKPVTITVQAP
The procedure:
as §1, §2

Experiment [4] has as its target T4, FcgRIIIa F (human, UniProt P08637 17-208).
T4 construct: extracellular domain; also called FcγRIIIa F; 3aF; not shown: His tag attached to the C terminus
Here is the method: as §1, §2

In experiment [5] the target is T5, FcgRIIIa V (human, UniProt P08637 17-208).
T5 construct: extracellular domain; also called FcγRIIIa V; not shown: His tag attached to the C terminus
Here is the method:
as §1, §2

T4 sequence (P08637 17-208): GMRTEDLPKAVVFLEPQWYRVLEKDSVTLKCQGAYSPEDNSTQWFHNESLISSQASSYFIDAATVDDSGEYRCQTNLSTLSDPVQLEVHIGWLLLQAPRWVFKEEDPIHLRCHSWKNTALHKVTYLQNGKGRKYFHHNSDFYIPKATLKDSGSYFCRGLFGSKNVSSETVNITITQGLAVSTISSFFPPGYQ
T5 sequence (P08637 17-208 F176V limits assumed): as the sequence (P08637 17-208) above, with F160V counted along it

B1: H240-Kn061 (S239V)/H240-Hl071/L73-k0 (antibody, human IgG1, kappa)
heavy 1: QDQLVQSGAEVKKPGASVKVSCKASGFNIKDTYIQWVRQAPGQGLEWMGRIDPLRKQTKYREKFEGRVTITADTSTNTAYMELSSLRSEDTAVYYCVRSGREFDYWGQGTLVTVSSASTKGPSVFPLAPSSKSTSGGTAALGCLVKDYFPEPVTVSWNSGALTSGVHTFPAVLQSSGLYSLSSVVTVPSSSLGTQTYICNVNHKPSNTKVDKKVEPKSCDKTHTCPPCPAPEYYWGPVVFLFPPKPKDTLMISRTPEVTCVVVDVSDEDPEVKFNWYVDGVEVHNAKTKPREEQYNATYRVVSVLTVLHQDWLNGKEYKCKVSNKALPAPIEKTISKAKGQPREPQVCTLPPSRDELTKNQVSLWCLVKGFYPSDIAVEWESNGQPENNYKTTPPVLDSDGSFFLYSKLTVDKSRWQQGNVFSCSVMHEALHNHYTQKSLSLSP
heavy 2: QDQLVQSGAEVKKPGASVKVSCKASGFNIKDTYIQWVRQAPGQGLEWMGRIDPLRKQTKYREKFEGRVTITADTSTNTAYMELSSLRSEDTAVYYCVRSGREFDYWGQGTLVTVSSASTKGPSVFPLAPSSKSTSGGTAALGCLVKDYFPEPVTVSWNSGALTSGVHTFPAVLQSSGLYSLSSVVTVPSSSLGTQTYICNVNHKPSNTKVDKKVEPKSCDKTHTCPPCPAPELLGGPSVFLFPPKPKDTLMISRTPEVTCVVVDVSHEDPEVKFNWYVDGVEVHNAKTKPREEQYNSTYRVVSVLTVLHQDWLNGKEYKCKVSNDALPMPIEETISKAKGQPREPQVYTLPPSRCELTKNQVSLSCAVKGFYPSDIAVEWESNGQPENNYKTTPPVLDSDGSFFLVSKLTVDKSRWQQGNVFSCSVMHEALHNHYTQKSLSLSP
light: DIQMTQSPSSLSASVGDRVTITCRASQDIHKYIAWYQQKPGQAPRLLIQYTSTLQPGVPSRFSGSGSGTDYTFTISSLQPEDIATYYCLQYEQLRTFGGGTKVEIKRTVAAPSVFIFPPSDEQLKSGTASVVCLLNNFYPREAKVQWKVDNALQSGNSQESVTEQDSKDSTYSLSSTLTLSKADYEKHKVYACEVTHQGLSSPVTKSFNRGEC
Regarding B1, the “Relative KD” value stood at 4.2 in experiment [1]; 2.4 in experiment [2]; 3.4 in experiment [3]; 2.4 in experiment [4]; 2.9 in experiment [5].

B2: H240-Kn061 (Y234I)/H240-Hl071/L73-k0 (antibody, human IgG1, kappa)
heavy 1: QDQLVQSGAEVKKPGASVKVSCKASGFNIKDTYIQWVRQAPGQGLEWMGRIDPLRKQTKYREKFEGRVTITADTSTNTAYMELSSLRSEDTAVYYCVRSGREFDYWGQGTLVTVSSASTKGPSVFPLAPSSKSTSGGTAALGCLVKDYFPEPVTVSWNSGALTSGVHTFPAVLQSSGLYSLSSVVTVPSSSLGTQTYICNVNHKPSNTKVDKKVEPKSCDKTHTCPPCPAPEIYWGPSVFLFPPKPKDTLMISRTPEVTCVVVDVSDEDPEVKFNWYVDGVEVHNAKTKPREEQYNATYRVVSVLTVLHQDWLNGKEYKCKVSNKALPAPIEKTISKAKGQPREPQVCTLPPSRDELTKNQVSLWCLVKGFYPSDIAVEWESNGQPENNYKTTPPVLDSDGSFFLYSKLTVDKSRWQQGNVFSCSVMHEALHNHYTQKSLSLSP
heavy 2: QDQLVQSGAEVKKPGASVKVSCKASGFNIKDTYIQWVRQAPGQGLEWMGRIDPLRKQTKYREKFEGRVTITADTSTNTAYMELSSLRSEDTAVYYCVRSGREFDYWGQGTLVTVSSASTKGPSVFPLAPSSKSTSGGTAALGCLVKDYFPEPVTVSWNSGALTSGVHTFPAVLQSSGLYSLSSVVTVPSSSLGTQTYICNVNHKPSNTKVDKKVEPKSCDKTHTCPPCPAPELLGGPSVFLFPPKPKDTLMISRTPEVTCVVVDVSHEDPEVKFNWYVDGVEVHNAKTKPREEQYNSTYRVVSVLTVLHQDWLNGKEYKCKVSNDALPMPIEETISKAKGQPREPQVYTLPPSRCELTKNQVSLSCAVKGFYPSDIAVEWESNGQPENNYKTTPPVLDSDGSFFLVSKLTVDKSRWQQGNVFSCSVMHEALHNHYTQKSLSLSP
light: DIQMTQSPSSLSASVGDRVTITCRASQDIHKYIAWYQQKPGQAPRLLIQYTSTLQPGVPSRFSGSGSGTDYTFTISSLQPEDIATYYCLQYEQLRTFGGGTKVEIKRTVAAPSVFIFPPSDEQLKSGTASVVCLLNNFYPREAKVQWKVDNALQSGNSQESVTEQDSKDSTYSLSSTLTLSKADYEKHKVYACEVTHQGLSSPVTKSFNRGEC
With B2, the “Relative KD” value in experiment [1] was 4.1; in experiment [2], 2.6; in experiment [3], 7.7; in experiment [4], 1.2; in experiment [5], 1.3.

B3: H240-Kn061 (Y234L)/H240-Hl071/L73-k0 (antibody, human IgG1, kappa)
heavy 1: QDQLVQSGAEVKKPGASVKVSCKASGFNIKDTYIQWVRQAPGQGLEWMGRIDPLRKQTKYREKFEGRVTITADTSTNTAYMELSSLRSEDTAVYYCVRSGREFDYWGQGTLVTVSSASTKGPSVFPLAPSSKSTSGGTAALGCLVKDYFPEPVTVSWNSGALTSGVHTFPAVLQSSGLYSLSSVVTVPSSSLGTQTYICNVNHKPSNTKVDKKVEPKSCDKTHTCPPCPAPELYWGPSVFLFPPKPKDTLMISRTPEVTCVVVDVSDEDPEVKFNWYVDGVEVHNAKTKPREEQYNATYRVVSVLTVLHQDWLNGKEYKCKVSNKALPAPIEKTISKAKGQPREPQVCTLPPSRDELTKNQVSLWCLVKGFYPSDIAVEWESNGQPENNYKTTPPVLDSDGSFFLYSKLTVDKSRWQQGNVFSCSVMHEALHNHYTQKSLSLSP
heavy 2: QDQLVQSGAEVKKPGASVKVSCKASGFNIKDTYIQWVRQAPGQGLEWMGRIDPLRKQTKYREKFEGRVTITADTSTNTAYMELSSLRSEDTAVYYCVRSGREFDYWGQGTLVTVSSASTKGPSVFPLAPSSKSTSGGTAALGCLVKDYFPEPVTVSWNSGALTSGVHTFPAVLQSSGLYSLSSVVTVPSSSLGTQTYICNVNHKPSNTKVDKKVEPKSCDKTHTCPPCPAPELLGGPSVFLFPPKPKDTLMISRTPEVTCVVVDVSHEDPEVKFNWYVDGVEVHNAKTKPREEQYNSTYRVVSVLTVLHQDWLNGKEYKCKVSNDALPMPIEETISKAKGQPREPQVYTLPPSRCELTKNQVSLSCAVKGFYPSDIAVEWESNGQPENNYKTTPPVLDSDGSFFLVSKLTVDKSRWQQGNVFSCSVMHEALHNHYTQKSLSLSP
light: DIQMTQSPSSLSASVGDRVTITCRASQDIHKYIAWYQQKPGQAPRLLIQYTSTLQPGVPSRFSGSGSGTDYTFTISSLQPEDIATYYCLQYEQLRTFGGGTKVEIKRTVAAPSVFIFPPSDEQLKSGTASVVCLLNNFYPREAKVQWKVDNALQSGNSQESVTEQDSKDSTYSLSSTLTLSKADYEKHKVYACEVTHQGLSSPVTKSFNRGEC
With B3, the “Relative KD” value in experiment [1] was determined as 2.2; in experiment [2] it was 1.5; in experiment [3], 3.5; in experiment [4] it was 1.1; in experiment [5], 1.2.
